Data published in patent US5356875A, “Anti-thrombin polypeptides and pharmaceutical compositions thereof” (Farmitalia Carlo ERBA S.r.l., priority 1991, dated 1994).
One block for each molecule: values may come before it.

Columns and labels:
[1] = cited from earlier work
thrombin [2] = molecular target: T1, thrombin (Homo sapiens, UniProt P00734); assay: chromogenic assay: inhibition of thrombin cleavage of synthetic substrate S-2238; assay type: biochemical
thrombin [3] = molecular target: T1, thrombin; assay: anti-thrombin activity of P2 released from fusion protein (test not specified); assay type: biochemical; conditions: P2 released by CNBr cleavage of polyhedrin fusion protein from S. frugiperda cytoplasm
Protocol: The recombinant baculovirus was obtained as described in Example 5. Infection of S. frugiperda cells was carried out according to standard procedures^20. Cultivation of infected insect cells lead to the cytoplasmic accumulation of the fusion protein. This hybrid protein was the source of recombinant protein P2. Several methods are available from the literature which can be used to cleave the hybrid with CNBr^22,23.The application of the method of Olson et al^23, has allowed us to obtain the correct polypeptidic sequence of P2.

Molecule: hirudin
efficacy in preventing venous thrombosis, vascular shunt occlusion and thrombin-induced disseminated intravascular coagulation ([1]; animal studies): demonstrated efficacy | antigenicity ([1]; in vivo): little or no antigenicity | clearance time from circulation ([1]; in vivo): very short clearance time | toxicity ([1]; in vivo): low toxicity

activity of P2 (thrombin [2]; E. coli type B strains with plasmid pOMP-P2 (Plpp/lac promoter)): active | anti-thrombin activity (thrombin [2]; culture supernatants of S. frugiperda cells infected with recombinant baculovirus, spinner culture or monolayers): presence of an anti-thrombin activity | anti-thrombin activity (thrombin [2]; periplasmic fraction of E. coli type B NCTC 10537 transformed with pFC-P2): presence of anti-thrombin activity | anti-thrombin activity (thrombin [3]): displayed anti-thrombin activity
B1: P2: 64-residue anti-thrombin polypeptide from Hirudinaria manillensis, HPLC peak P2, sequence (ii); also produced recombinantly in E. coli and insect cells (protein)
chain: VSYTDCTESGQNYCLCVGSNVCGEGKNCQLSSSGNQCVHGEGTPKPKSQTEGDFEEIPDEDILN
